Data on 15 sequences can be found in the DeepSol protein solubility set.

A short description of this data set: soluble on expression in E. coli; label from the status in PepcDB or PDB records.
As to “MAYDGLFTKKMVESLQFLTTGRVHKINQPDNDTILMVVRQNRQNHQLLLSIHPNFSRLQLTTKKYDNPFNPPMFARVFRKHLEGGIIESIKQIGNDRRIEIDIKSKDEIGDTIYRTVILEIMGKHSNLILVDENRKIIEGFKHLTPNTNHYRTVMPGFNYEAPPTQHKINPYDITGAEVLKYIDFNAGNIAKQLLNQFEGFSPLITNEIVSRRQFMTSSTLPEAFDEVMAETKLPPTPIFHKNHETGKEDFYFIKLNQFNDDTVTYDSLNDLLDRFYDARGERERVKQRANDLVRFVQQQLHKYQNKLAKLIEEYEQSKNKDTEQLYGELITANIYRIKQGDKEVTALNYYTNEEVVIPLNPTKSPSANAQYYYKQYNRMKTRERELQHQIQLTKDNIDYFSTIEQQLHHISVHDIDEIRDELAEQGFMKQRKNQTKKKKAQ”, the “soluble on expression in E. coli” value is listed as “not soluble”.
The result for “MFYDGYAYHGTTFEQTYRCYPSSFIDKPQIESGDKIIMPPSALDRLASLQIDYPMLFELRNASTDSFSHCGVLEFIAEEGVIYIPYWMMQNLLLQEGDMVRVRNVTLPKGTYVKLQPHTTDFLDIANPKAILETALRNYSCLTVGDSIMVPYNNKKYFIDIVEAKPSNGISIIETDCEVDFAPPLDYKEPERPVAPAPAKGEAKAKEVDVAEAEPKFNPFTGSGRRLDGRPLSYEPQPGAANSNGQSHPVASSSSSGSEKATQQNRGKLVFGSNVERSTKETTKVGAGKDRKQEEEAEKEAKFQAFSGKKYSLRG” reads “soluble”.
For “MGSSHHHHHHSSGLVPRGSHMLLREVTREERKNFYTNEWKVKDIPDFIVKTLELREFGFDHSGEGPSDRKNQYTDIRDLEDYIRATAPYAVYSSVALYEKPQEMEGWLGTELVFDIDAKDLPLRRCEHEPGTVCPICLNDAKEIVRDTVIILREELGFNDIHIIYSGRGYHIRVLDEWALKLDSKSRERILSFVSASEIEDVEEFRKLLLNKRGWFVLNHGYPRAFRLRFGYFILRIKLPHLINAGIRKSIAKSILKSKEEIYEEFVRKAILAAFPQGVGIESLAKLFALSTRFSKSYFDGRVTVDLKRILRLPSTLHSKVGLIAKYVGTNERDVMRFNPFKHAVPKFRKEEVKVEYKKFLESLGT”, the “soluble on expression in E. coli” value is “soluble”.
As for “MKVIIIGGETTAYYLARSMLSRKYGVVIINKDRELCEEFAKKLKATIIHGDGSHKEILRDAEVSKNDVVVILTPRDEVNLFIAQLVMKDFGVKRVVSLVNDPGNMEIFKKMGITTVLNLTTLITNTVEALIFPDEFSSIIPLEQGIEFLSVNVEEDSPVVGKKLKDLPLPRDSIIAAIVRGGVLVVPRGDTEILSGDKLYVIVSAEAKETVEETLLGR”, the “soluble on expression in E. coli” value is recorded as “soluble”.
Consider “GPGSMEEDLAYKIIVIGSVSVGKSNITSRFCDGAFYPDLVPTLGMDFKYSSCNTLEKRPRCVRLQVWDTSGQDDFVTLTTAFYRNCQGALLCFDLTNRQSFEDLDQWYERLERYSPVVPPLILVGCKLDLVESHLDEQGEGIVLGSHRQIAKSEADAWARYHSCLCYLETSAKENRNVSQAFQQLATCIASVANPGAKHAGRILGPGGRLLVEEEKQQKRQCCAN”, for which the “soluble on expression in E. coli” value was “not soluble”.
“FDKTVLQIFANYCVAAAESMAHTLMRTAHSAFVKETEDFSCTIMTPRGQTFASPKTLGATWYPGLDFSGAIDMIDGYEPGDICMTNDAYSGYVATHTPDIMMWKPVYYQGEMVCFVGGHIHNTDMGGAVPASLSRTLTEVHQEGIRFPPTKIVRRGVLNEELMRLMELNVRSPDQNRGDLQAQTAMLMTGERRIVEIIERFGLQAFKEGMAAMLDYSEQQARAIVRAMPDGEYFFAEYANEDSLNGKPLRVAITLRIRGDELEFDFTGSDPQLTSSLNMPTGGKERHVLALVGLNYVLYSLNPEILLNAGMLRVARCILPEGSVVNPLAPAAVGMRSLTCKVVQYATMGVFSQVVPDRLPASPAGGMSIVNVKTTDRDGKTIIAAIEPVGGGAGGDPYSDGADASGAIVAFLRNTPVEINETEVPIRITRYGMVPDSGGPGRYRGGLGTCMEFQVYTPNSAVTARNRDRSRFASWGVLGGKAGTVSRFLRNPGTAHEEDLGVHDFIHCQPGDVIRLEGCGGGGYGSPWERDPARVLHDVRCGYV”: the “soluble on expression in E. coli” value is “not soluble”.
The result for “MDNFENLSTKDSFPEHFRRAVRGIFPDSQLPDEFFLVVYRDGKFERSLQPTATFAGRKAPVVIIPQWKEKHTLEIGNYRKVVDEEFYQIGGKMIYAGRDIFIEDVPGLYRNIDMVFLDGEKECIYRDGFLMMEEKILKIEEPVDVVDGIVITRHRMGSKEIDDTILFRWNNFVLTASGFLVDIKGKWSWKVSNAPVEFSFQGDIFYVLDVCGFLRSYNLKTRQLLWEKKFEGAWGLDSSKDRVFLGAGDEVLVLNAQDGETIERMEADDFAVWKGRLLVYKDGKVDGEDMEGFFIRNFGMPLFVSGKRVVMFGTEKKEFEEVEKVRLFDWGTVIKAGDELWLIRRD” reads “not soluble”; that for “SLTSEMIENIQSVKAYCWEEAMEKSGGGSGGGSGGGSGGGIENSHVKKDDIWPSGGQMTVKDLTAKYTEGGNAILENISFSISPGQRVGLLGRTGSGKSTLLSAFLRLLNTEGEIQIDGVSWDSITLEQWRKAFGVIPQKVFIFSGTFRKNLDPYEQWSDQEIWKVADEVGLRSVIEQFPGKLDFVLVDGGCVLSHGHKQLMCLARSVLSKAKILLLDEPSAHLDPVTYQIIRRTLKQAFADCTVILCEARIEAMLECDQFLVIEENKVRQYDSIQKLLNERSDFRQAISPSD”, “soluble”.
The result for “MATLKDIAIEAGVSLATVSRVLNDDPTLNVKEETKHRILEIAEKLEYKTSSARKLQTGAVNQHHILAIYSYQQELEINDPYYLAIRHGIETQCEKLGIELTNCYEHSGLPDIKNVTGILIVGKPTPALRAAASALTDNICFIDFHEPGSGYDAVDIDLARISKEIIDFYINQGVNRIGFIGGEDEPGKADIREVAFAEYGRLKQVVREEDIWRGGFSSSSGYELAKQMLAREDYPKALFVASDSIAIGVLRAIHERGLNIPQDISLISVNDIPTARFTFPPLSTVRIHSEMMGSQGVNLVYEKARDGRALPLLVFVPSKLKLRGTTR” reads “soluble”; that for “GSHMSYADSSRNAVLTNGGRTLRAECRNADGNWVTSELDLDTIIGNNDGHFQWGGQNFTETAEDIRFHPKEGAAEQPILRARLRDCNGEFHDRDVNLNRIQNVNGRLVFQ”, “soluble”; that for “MGSDKIHHHHHHMKQIYLLLLCGVLFACKKKESLPEVQKIGHSGMGLYGDYPINSFESLMQAFLLGADGVEIDVQMTRDGILVLLHDELLDNQTNGTGAVQERTWDEISNLAYDNIALGRYNIIRLDFLLENCGPHIDKLFYFDIKPNAYSTEHLYTLNRNLSTLITKFNLEDNSVLMYQNNAQFLHMLSLRTDLTIYSYSDFNTAKKNILQYKLNGWVASINDIDESKVAQMHEIGARVVGFSTFNKNDHLNLIHKGVDIIQTDNLKNLINLYQ”, “not soluble”.
The result for “GSCASCPNNCENGLCTNSCDFEDLLSNCESLKTSAGCKHELLKTKCQATCLCEDKIH” reads “soluble”; that for “MGSDKIHHHHHHMGRLKTVKLVLLHTSFNLFYQFFYKVFGPKKGRITLATMRSGQLNDNLAALEQGLKTANVKPVTVFCYHYDRTLAGKVGFLLASIKALYVIARADVFVIDDYFFPLYAIHKHDDNQVVQLWHAIGSLKKFGLSLPNADQSVMKPHTNYDWVLINAKSDQPAYLDAMAINQDHVIATGSPMVDSLLNRQPQQPRLAARRILYSPTYRQGVQGKQQVMGYVNNMIAACQQLTGPWELYISLHPYLKLSAMTLPSNVHIFQDAERVKTLMPTIDLFITDYSSLSLTFSYFERPIILYTPDYDDYMQTSGFYVDYYQYLQAPHFSKAARVVDFINQEVDHMDLSYVHELKQKTFPHQDGHNTERVVQFVEKLAGGEH”, “not soluble”.
Take “MERKLFAFDIDGTLLNSEKKALDSTREALAKLREQGHLVTLATGRSRYMAQEVIWDLDFTNYVLCNGAAAFVDHEQYYQNLLHAEALERLAQDSDQRGLGFACVGLDDIKKSNQHRAEKMEIAMNSFHFHSPAYDEHFYRQNDIYQALAFYDAEDQCTFEEEYPEFRFIRWHQHSVDVVPKDGSKSATLTYLAKRVGIDAKNIIAFGDGENDREMLSHAGIGVAMGNASPSIQKVATMVTDTNDNDGIWKALKEMKAI”: the “soluble on expression in E. coli” value was “not soluble”.
The result for “MGSELLDLSFLSEEEKDLILSVLQRDEEVRKADEKRIRRLKNELLEIKRKGAKRGSQHYSDRTCARCQESLGRLSPKTNTCRGCNHLVCRDCRIQESNGTWRCKVCAKEIEMKKATGDWFYDQKVNRFAYRTGSEIIRMSLRHKPAVSKR” reads “soluble”.
